Data reported in patent US8933202B2, “AXL antibodies” (U3 Pharma GmbH, priority 2007, dated 2015).

T1: human AXL-ECD (Homo sapiens, UniProt P30530)
T1 construct: purchased R&D Systems 154-AL
T1 sequence (P30530 26-451 limits assumed): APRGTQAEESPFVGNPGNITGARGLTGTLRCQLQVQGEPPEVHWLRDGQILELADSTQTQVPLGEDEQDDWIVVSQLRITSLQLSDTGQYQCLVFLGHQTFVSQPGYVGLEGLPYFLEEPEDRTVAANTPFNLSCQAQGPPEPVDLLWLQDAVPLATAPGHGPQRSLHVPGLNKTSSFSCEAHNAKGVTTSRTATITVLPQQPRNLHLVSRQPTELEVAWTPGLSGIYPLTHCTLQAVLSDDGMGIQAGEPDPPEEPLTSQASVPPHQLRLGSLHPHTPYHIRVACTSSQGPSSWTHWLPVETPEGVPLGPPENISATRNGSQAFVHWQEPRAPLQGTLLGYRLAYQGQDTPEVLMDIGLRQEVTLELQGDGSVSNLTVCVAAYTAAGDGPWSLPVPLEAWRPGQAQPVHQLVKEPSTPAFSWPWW

T2: AXL (Homo sapiens, UniProt P30530)
T2 sequence (P30530 26-894): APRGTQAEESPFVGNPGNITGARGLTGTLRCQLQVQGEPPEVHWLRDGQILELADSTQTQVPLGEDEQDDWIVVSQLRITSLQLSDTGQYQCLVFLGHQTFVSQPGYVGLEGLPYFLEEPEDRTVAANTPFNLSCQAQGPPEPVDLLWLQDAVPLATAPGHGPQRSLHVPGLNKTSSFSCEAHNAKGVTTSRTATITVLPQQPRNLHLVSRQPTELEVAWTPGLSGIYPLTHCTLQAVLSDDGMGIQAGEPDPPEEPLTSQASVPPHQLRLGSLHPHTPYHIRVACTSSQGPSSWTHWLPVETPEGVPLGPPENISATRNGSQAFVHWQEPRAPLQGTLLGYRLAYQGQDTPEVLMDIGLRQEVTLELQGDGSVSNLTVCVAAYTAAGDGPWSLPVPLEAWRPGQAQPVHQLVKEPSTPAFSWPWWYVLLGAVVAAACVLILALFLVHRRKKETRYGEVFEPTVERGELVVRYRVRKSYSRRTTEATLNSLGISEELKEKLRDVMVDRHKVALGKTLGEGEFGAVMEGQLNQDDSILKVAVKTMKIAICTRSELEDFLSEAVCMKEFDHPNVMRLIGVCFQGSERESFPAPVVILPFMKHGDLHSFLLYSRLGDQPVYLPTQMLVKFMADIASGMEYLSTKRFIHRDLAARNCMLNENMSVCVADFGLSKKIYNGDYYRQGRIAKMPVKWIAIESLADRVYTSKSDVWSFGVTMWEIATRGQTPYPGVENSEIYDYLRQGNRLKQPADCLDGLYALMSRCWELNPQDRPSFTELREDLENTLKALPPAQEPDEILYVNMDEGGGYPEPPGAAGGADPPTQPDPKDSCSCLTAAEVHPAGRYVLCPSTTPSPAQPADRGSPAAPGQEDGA

B1: 10D12: antagonistic rat anti-AXL monoclonal antibody (antibody, V domains shown)
VL: DIQMTQAPSSLPASLGDRVTIACRASQDIGNYLRWFQQKPGKSPRLMISGATNLAAGVPSRFSGSRSGSDYSRTISSLESEDMADYYCLQSKESPWTFGGGTKLELK
VH: EVQLQESGPGLVKPSQSLSLTCSVTGYSITSNYWGWIRKFPGNKMEWMGYITNSGGTAYNPSLKSRISITRDTSKNQFFLQLNSVIPEDSATYFCSRTPWDWGQGVMVTVSS

Legend:
C-8161 melanoma cells = test: Soft agar colony formation assay, combination with cisplatin; format: cell-based, human; settings: 0.25 to 1.5 μM cisplatin, 5 days, compared to untreated control cells
Protocol: Soft agar assays were conducted in order to investigate the ability of anti-Axl antibodies of the invention to inhibit anchorage-independent cell growth either alone or in combination with chemotherapeutic agents. The soft agar colony formation assay is a standard in vitro assay to test for transformed cells, as only transformed cells are able to grow in soft agar.
In brief, 750 C-8161 melanoma cells either remained untreated or were pre-incubated with the antagonistic rat anti-Axl antibody 11B7 at 15 μg/ml in IMDM medium (Gibco) for 30 min at 37° C. Subsequently, cells were combined with Difco noble agar solution resulting in 50 μl of top agar cell suspension at concentrations of Agar, FCS, and 11B7 of 0.35%, 0.2%, and 7.5 μg/ml, respectively. This cell suspension was plated on top of 50 μl of a 0.7% agarose bottom layer containing 20% FCS, and was finally covered with another 50 μl of a feeding layer solution that contains 0.2% FCS as well as cisplatin in according concentrations. In the whole of 150 μl per sample, the final concentrations of 11B7 and cisplatin were 2.5 μg/ml and 1.5 μM, 1.0 μM, 0.75 μM, 0.5 μM, or 0.25 μM, respectively. Colonies were allowed to form for 5 days and were then stained with 50 μl MTT (Sigma, 1 mg/ml in PBS) for 3 hours at 37° C. Using a Scanalyzer HTS camera system in conjunction with the HTS Bonit colony formation software (Lemnatec, Wuerselen), the effect of the antagonistic rat anti-Axl antibody 11B7 in the absence or presence of cisplatin were analyzed in triplicates.

NIH3T3-pLXSN control = test: Primary FACS screen of hybridoma antibodies, binding to mock control cells
Protocol: Monoclonal rat anti-AXL antibodies were raised by injection of approximately 10×10^6 frozen cells of RatI-AXL cl.2 both i.p. and subcutaneously into Lou/C or Long Evans rats. After an 8-week interval, a final boost was given i.p and subcutaneously 3 d before fusion. Fusion of the myeloma cell line P3X63-Ag8.653 with the rat immune spleen cells was performed according to standard procedures and yielded 105 hybridomas. After 2 weeks, first supernatants from hybridomas were collected and tested in a primary FACS screen for binding to NIH3T3-AXL cl.7 fibroblasts versus NIH3T3-Mock control cells. Clones positive for AXL binding were further cultivated. From 50 ml supernatant of these clones, antibodies were purified and re-analyzed for specific binding to AXL on NIH3T3-AXL cl.7 fibroblasts versus NIH3T3-Mock control cells. Purified antibodies specifically binding to NIH3T3-AXL cl. 7 fibroblasts but not NIH3T3-Mock control cells were furthermore tested in Akt-Kinase phosphorylation ELISAs, and ELISAs to determine the isotype were performed. For purification of rat antibodies, supernatants were spun for 20 minutes at 5,000 g and subsequently sterile filtered. 500 μl of protein G sepharose FF were added and incubated at 4° C. for at least 1 h on a spinning wheel. […]

human AXL-ECD = target: T1, human AXL-ECD; test: Competition ELISA on AXL-ECD coated plates; format: binding; settings: 10 μg/ml unbiotinylated, 0.5 μg/ml biotinylated antibody
Protocol: Therefore binding of biotinylated anti-AXL antibodies to AXL-ECD domain-coated plates preincubated with anti-AXL antibodies was determined in a competition ELISA. […] On day 1, black 96 well Maxi-Sorp plates (Nunc) were coated with 100 μl/well of 1 μg/ml human AXL-ECD (R&D Systems #154-AL) in PBS over night at 4° C. […] After washing 6× with wash buffer (PBS, 0.1% TWEEN-20), 80 μl/well AP-conjugated Streptavidin (Chemicon #SA110) diluted 1:4,000 in blocking buffer were added, incubated for 20 min at room temperature washed again 6× with wash buffer and finally washed once with PBS. For detection, 100 μl/well Attophos substrate solution (Roche #11681982) were added. Using a Victor plate reader (Perkin Elmer), the fluorescence of each well was collected at an excitation wavelength of 430 nm an emission wavelength of 580 nm.

[1] = test system: NCI-H292 lung cancer cells; test: Wound healing/scratch assay; format: cell-based, human; settings: 10 μg/ml antibody, 24 h, compared to isotypic control antibody
Text: To examine the migration and proliferation rates of different cells and culture conditions, in vitro wound healing/scratch assays are being employed for many years. These assays generally involve growing a confluent cell monolayer first. A small area is then disrupted and a group of cells are being destroyed or displaced by scratching a line through the layer with, for example, a pipette tip. The open gap is then inspected microscopically over time as the cells move in and fill the damaged area (“healing”). In brief, 1.5×10^6 NCI-H292 lung cancer cells were seeded per well of a 12 well dish and cultured in normal growth medium (RPMI, 10% FCS). After 8 h, cells were rinsed with PBS and starved in low serum medium (RPMI, 0.5% FCS) over night for 24 h. Using a sterile 200 μl pipette tip, three separate uniform wounds per well were scratched through the confluent NCI-H292 cell monolayers. […] Cells were permitted to migrate into the area of clearing for 24 h, washed once with PBS and fixed with ice cold Methanol (100%) at −20° C. After cells were stained with crystal violet (0.5% in 20% Methanol), rinsed with water and dried over night, photos of the wounds were taken.

AXL = target: T2, AXL; test: AXL receptor tyrosine phosphorylation ELISA; format: cell-based; design: expressed in transfected cells; host or cells: NIH3T3-AXL cl.7 (pLXSN-hAXL) and NCI-H292 lung cancer cells (endogenous AXL); settings: 10 μg/ml antibody, 400 ng/ml Gas6; NIH3T3-AXL cl.7 fibroblasts and NCI-H292 lung cancer cells
Protocol: ELISA experiments were performed in order to investigate whether the rat anti-AXL antibodies of the invention are able to block ligand Gash-mediated activation of AXL. Gas6-mediated AXL activation was detected by increased receptor tyrosine phosphorylation. In brief, on day 1, 3×10^4 cells per well were seeded in normal growth medium in flat-bottom 96 well plates. The next day, growth medium was replaced by serum-free medium to starve cells over night for 24 h. Also over night, black Maxi-Sorp 96 well plates (Nunc) were coated with mouse anti-phospho-tyrosine antibody 4G10 at 2 μg/ml PBS and 4° C. On day 3, the 4G10 antibody solution was removed and Maxi-Sorp wells were blocked with PBS, 0.5% BSA for at lest 4 h at room temperature. […] Medium was then flicked out and cells were lysed in lysis buffer (50 mM HEPES, pH 7.5, 150 mM NaCl, 1 mM EDTA, 10% glycerine, and 1% Triton X-100) supplemented with phosphatase and protease inhibitors (10 mM Na4P2O7, 1 mM phenylmethylsulfonyl fluoride, 1 mM orthovanadate, 1 mM NaF, and 0.5% aprotinin) for 30 min on ice. […] Using a Victor plate reader (Perkin Elmer), the fluorescence of each well was collected at an excitation wavelength of 430 nm and an emission wavelength of 580 nm.

Molecule | soft agar colony growth, cisplatin alone (C-8161 melanoma cells) | FACS shift NIH3T3-pLXSN control (NIH3T3-pLXSN control) | competition with antagonistic anti-AXL antibodies for binding to AXL-ECD (human AXL-ECD) | re-population of the cleared area (wound closure) [1] | ligand-mediated AXL activation (phosphorylation) (AXL)
N.N.[Cl][Pt][Cl] [cisplatin, reference compound] | colony growth retardation in a dose-dependent manner |  |  |  | 
B1 |  | 0.5 | compete with each other for the same or structurally adjacent epitopes | reduced the re-population of the cleared area | able to block or reduce ligand-mediated AXL activation
